The values that follow come from US20220125837A1, “METHODS FOR CONTROLLED ELIMINATION OF THERAPEUTIC CELLS” (Bellicum Pharmaceuticals, Inc., priority 2014, published 2022).

The chains are these.
B1: F319A: chimeric modified Caspase-9 polypeptide (protein, UniProt P55211 1-416, looked up, variant F319A)
chain: MDEADRRLLRRCRLRLVEELQVDQLWDALLSRELFRPHMIEDIQRAGSGSRRDQARQLIIDLETRGSQALPLFISCLEDTGQDMLASFLRTNRQAAKLSKPTLENLTPVVLRPEIRKPEVLRPETPRPVDIGSGGFGDVGALESLRGNADLAYILSMEPCGHCLIINNVNFCRESGLRTRTGSNIDCEKLRRRFSSLHFMVEVKGDLTAKKMVLALLELAQQDHGALDCCVVVILSHGCQASHLQFPGAVYGTDGCPVSVEKIVNIFNGTSCPSLGGKPKLFFIQACGGEQKDHGFEVASTSPEDESPGSNPEPDATPAQEGLRTFDQLDAISSLPTPSDIFVSYSTFPGFVSWRDPKSGSWYVETLDDIFEQWAHSEDLQSLLLRVANAVSVKGIYKQMPGCFNFLRKKLFFKTS
modifications: fused to FKBP12 F36V dimerization domain
notes: chimeric modified Caspase-9 polypeptide
B2: F319W: chimeric modified Caspase-9 polypeptide (protein, UniProt P55211 1-416, looked up, variant F319W)
chain: B1 chain with A319W
modifications: fused to FKBP12 F36V dimerization domain
notes: as for B1
B3: T317A: chimeric modified Caspase-9 polypeptide (protein)
chain: VDGFGDVGALESLRGNADLAYILSMEPCGHCLIINNVNFCRESGLRTRTGSNIDCEKLRRRFSSLHFMVEVKGDLTAKKMVLALLELARQDHGALDCCVVVILSHGCQASHLQFPGAVYGTDGCPVSVEKIVNIFNGTSCPSLGGKPKLFFIQACGGEQKDHGFEVASTSPEDESPGSNPEPDAAPFQEGLRTFDQLDAISSLPTPSDIFVSYSTFPGFVSWRDPKSGSWYVETLDDIFEQWAHSEDLQSLLLRVANAVSVKGIYKQMPGCFNFLRKKLFFKTSASRA
B4: A316G: chimeric modified Caspase-9 polypeptide (protein)
chain: B3 chain with A184G, A185T
B5: D330V: chimeric modified Caspase-9 polypeptide (protein)
chain: B3 chain with A185T, D198V
B6: D330E: chimeric modified Caspase-9 polypeptide (protein)
chain: B3 chain with A185T, D198E
B7: S196D: chimeric modified Caspase-9 polypeptide (protein)
chain: B3 chain with S64D, A185T
B8: S144D: chimeric modified Caspase-9 polypeptide (protein)
chain: B3 chain with S12D, A185T
B9: D330G: chimeric modified Caspase-9 polypeptide (protein)
chain: B3 chain with A185T, D198G
B10: S196A: chimeric modified Caspase-9 polypeptide (protein)
chain: B3 chain with S64A, A185T
B11: D330N: chimeric modified Caspase-9 polypeptide (protein)
chain: B3 chain with A185T, D198N
B12: S144A: chimeric modified Caspase-9 polypeptide (protein)
chain: B3 chain with S12A, A185T
B13: S183A: chimeric modified Caspase-9 polypeptide (protein)
chain: B3 chain with S51A, A185T
B14: D330S: chimeric modified Caspase-9 polypeptide (protein)
chain: B3 chain with A185T, D198S

Substitutions are numbered along the chain they refer to. Names and notes keep the numbering of the source. “Also recorded” adds a separate entry of the source. Where a SMILES comes first, the peptide text is derived from it. The star is where a group is joined. Cbz = O=C(OCc1ccccc1)*; CH2F = FC*

One assay concerns HEK293T/16 cells. The assay can be described thus: Secreted alkaline phosphatase (SEAP) surrogate killing assay of iCasp9 mutants. In kind it is cell-based, human. Particulars: SEAP assay without AP1903; relative to wild type Caspase-9.
Method: Early passage HEK293T/16 cells (ATCC, Manassas, Va.) were maintained in IMDM, GlutaMAX™ (Life Technologies, Carlsbad, Calif.) supplemented with 10% FBS, 100 U/mL penicillin, and 100 U/mL streptomycin until transfection in a humidified, 37° C., 5% CO2/95% air atmosphere. Cells in logarithmic-phase growth were transiently transfected with 800 ng to 2 μg of expression plasmid encoding iCasp9 mutants and 500 ng of an expression plasmid encoding SRα promoter driven SEAP per million cells in 15-mL conical tubes. […] GeneJammer® Transfection Reagent at a ratio of 3 μl per ug of plasmid DNA was used to transiently transfect HEK293T/16 cells in the absence of antibiotics. 100 μl or 2 mL of the transfection mixture was added to each well in 96-well or 6-well plate, respectively.
Briefly, after 65° C. heat denaturation for 45 minutes to reduce background caused by endogenous (and serum-derived) alkaline phosphatases that are sensitive to heat, 5 μl of supernatants was added to 95 μl of PBS and added to 100 μl of substrate buffer, containing 1 μl of 100 mM 4-methylumbelliferyl phosphate (4-MUP; Sigma, St. Louis, Mo.) re-suspended in 2 M diethanolamine. Hydrolysis of 4-MUP by SEAP produces a fluorescent substrate with excitation/emission (355/460 nm), which can be easily measured. […] 1000-ul of the mixture was seeded onto each well of a 96-well plate. […] For the assay, 4-methylumbelliferyl phosphate substrate was hydrolyzed by SEAP to 4-methylumbelliferon, a metabolite that can be excited with 364 nm and detected with an emission filter of 448 nm. Since SEAP is used as a marker for cell viability, reduced SEAP reading corresponds with increased iCaspase-9 activities.
Turning to B1, the “basal activity, in words” value is given as “no effect”.

For the molecule B2, the “basal activity, in words” value was “lower basal activity”.

Take B3: the “basal activity, in words” value is reported as “lower basal activity; also recorded: reduce basal activity”.

Consider B4, for which the “basal activity, in words” value is “lower basal activity”.

Consider B5, for which the “basal activity, in words” value was “less basal activity than wild type Caspase-9”.

Take B6: the “basal activity, in words” value is recorded as “less basal activity than wild type Caspase-9”.

Regarding B7, the “basal activity, in words” value is “lower basal activity”.

Take B8: the “basal activity, in words” value was “lower basal activity”.

Take B9: the “basal activity, in words” value is reported as “less basal activity than wild type Caspase-9”.

Take B10: the “basal activity, in words” value is “lower basal activity”.

Consider B11, for which the “basal activity, in words” value is “less basal activity than wild type Caspase-9”.

For the molecule B12, the “basal activity, in words” value is on record as “lower basal activity”.

With B13, the “basal activity, in words” value was “lower basal activity”.

With B14, the “basal activity, in words” value is “less basal activity than wild type Caspase-9”.

The subject of another assay is PG13 packaging cells.
Assay: not given
Type of assay: cell-based.
Details: not given
Regarding B6, the “CD19 mean fluorescence intensity of transduced PG13 cells, in words” value was “enhanced CD19 mean fluorescence intensity (MFI)”.

The assay is the same for the next values; noted with them: upon HAT media treatment; HT1080 cells.
On to B6, for which the “viral titers, in words” value was “higher viral titers”.

The test system of another assay is 293 cells. Nature of the assay: SRα-SEAP assay in 293 cells with FRBl2-tagged CAR and iCaspase-9: rapamycin or rimiducid. In kind it is cell-based, human. Particulars: FRB-tagged CAR plus FKBP12-tagged Caspase-9; overnight. On the procedure:
Two tandem FRB, domains were fused to either either a 1st generation Her2-CAR or to a 1st generation CD19-CAR co-expressing inducibleiCaspase-9. 293 cells were transiently transfected with a constitutive reporter plasmid, SRα-SEAP, along with normalized levels of expression plasmids encoding Her2-CAR-FRBl2, iCaspase-9, Her2-CAR-FRBl2+iCasp9, iC9-CAR(19).FRBl2 (coexpressing both CD19-CAR-FRBl2 and iCaspase9), or control vector. […] After overnight incubation with drugs, SEAP activity was determined. […] This dose-dependent decrease required the presence of both the FRB-tagged CAR and the FKBP12-tagged Caspase-9. […] Moreover, on- or off-target-mediated CAR clustering should increase the sensitivity of killing primarily at the site of scFv engagement.
24 hours following transfection (4.1), 293T cells are split to 96-well plates and incubated with dilutions of dimerizing drugs. Briefly, 100 μL media is added to each well of a 96-well flat-bottom plate. Drugs are diluted in tubes to a concentration 4× the top concentration in the gradient to be place on the plate. […]
24 hours after drug stimulation, 96-well plates are wrapped to prevent evaporation and incubated at 65° C. for 2 hours to inactivate endogenous and serum phosphatases while the heat-stable SeAP reporter remains (3, 12, 14). […] Phosphatase activity is measured by fluorescence with excitation at 355 nm and emission at 460 nm. […]
On to `CO[C@H]1C[C@@H]2CC[C@@H](C)[C@@](O)(O2)C(=O)C(=O)N2CCCC[C@H]2C(=O)O[C@H]([C@H](C)C[C@@H]2CC[C@@H](O)[C@H](OC)C2)CC(=O)[C@H](C)/C=C(\C)[C@@H](O)[C@@H](OC)C(=O)[C@H](C)C[C@H](C)/C=C/C=C/C=C/1C` [Rapamycin], for which the “maximal decrease of SEAP activity” value is about 50%.

The test system of the next assay is F-Casp9M.I.GFPhigh-transduced T cells. Nature of the assay: Annexin V/7-AAD staining of iCasp9M GFPhigh T cells after CID. Type of assay: cell-based, human. Particulars: 100 μM for 1 hour prior to adding CID. The procedure: CID (AP20187; ARIAD Pharmaceuticals) at indicated concentrations was added to transfected 293T cells or transduced CTLs. Adherent and nonadherent cells were harvested and washed with annexin binding buffer (BD Pharmingen, San Jose, Calif.). Cells were stained with annexin-V and 7-amino-actinomycin D (7-AAD) for 15 minutes according to the manufacturer's instructions (BD Pharmingen). Within 1 hour after staining, cells were analyzed by flow cytometry using CellQuest software (Becton Dickinson).
A representative example of 3 separate experiments is shown.
For clinical applications therefore, versions of the expression constructs with selectable markers that allow selection for high copy number, high levels of expression, or both high copy number and high levels of expression may be desirable. […] The dose response remained unchanged for at least 4 weeks after transduction.
On to `COC(=O)C[C@H](NC(=O)[C@H](C)NC(=O)[C@@H](NC(=O)OCc1ccccc1)C(C)C)C(=O)CF` [zVAD-fmk] (Cbz-Val-Ala-Asp(OMe)-CH2F), for which the “effect on CID-induced apoptosis” value is “inhibited”.
